Measured values as given in US20150104459A1 (published 2015).

Target: recombinant soluble homotrimeric HA, A/common magpie/Hong Kong/5052/07 (H5N1) (influenza A virus A/common magpie/Hong …)
Assay: microarray, trimeric HA, transfection supernatant

Binder	Trimeric HA Binding RLU [RLU]
TCN-560 (5084_P10) (antibody, V domains shown) VH: EVQLVESGGGLVQPGGSLRLSCAASGFIFRNYWMSWVRQAPGKGLEWVANIKQDGREKYYVDSLRGRVNISRDNAENSLYLHMNSLRVEDTAVYFCARARMVVVTGDGFDVWGHGTMVTVSS VL: DIQMTQSPSSLSASVGDRVTITCRASQNIKRYFNWYQQKPGKAPKLLIYAASNLENGVPSRFSGSGSGTDFTLTISSLQPEDFATYYCQQSFSKSWTFGQGTNVDIK	30500
TCN-556 (5089_K12) (antibody, V domains shown) VH: QVQLVQSGAEVKKPGASVKVSCKASGYTFIGYDMHWVRQAPGQGLEWMGWINAKRGGTNYAQKFQGRVTMTRDTSISTAYMELNSLRSDDTAVYYCARGVGSRTTIFGVLNPEFDYWGQGTLVTVSS VL: QSALTQPPSASGSPGQSVTISCTGSSSDVGGYDYVSWYQQHPGKAPKLLIYEVTKRPSGVPDRFSGSKSGNTASLTVSGLQAEDEADYYCSSYAGNYNHVFGPGTKVTVL	20100
